To fix the notation:
B1: HDV Ribozyme (parent)
chain: GGCCGGCAUGGUCCCAGCCUCCUCGCUGGCGCCGGCUGGGCAACAUUCCGAGGGGACCGUCCCCUCGGUAAUGGCGAAUGGGACCCA

This data set covers variants of B1. The data set is described as follows: self-cleavage, relative activity (ratio to wild type); higher = more cleavage; co-transcriptional.
As to C3A U72G, the self-cleavage stood at 0.0712. To G10C C84G belongs 0.578.

With A43G C66U, the self-cleavage was 0.672.

C22A C32A: the self-cleavage stood at 0.0678.

Turning to G5C C64G, the self-cleavage was determined as 0.0462. With C49U U69G, the self-cleavage worked out at 1.16. The value for C58G G59A was 1.1; that for C13A U20G was 0.0594. The value for G34A A78U was 0.0489; that for A16G G50A was 1.4. To G80U C84G belongs 0.332. In the case of C21A C85G, the self-cleavage amounted to 0.

On to G52C A56C, for which the self-cleavage was 0.95. As to G25U C75U, the self-cleavage turned out to be 0.162. The value for C15G A77U was 0.158; that for G28A G74C was 0.0845.

Take C33G A43C: the self-cleavage is 0.0723. To U20A C49G belongs 0.128; to G1A C41G, 0. C61G A78G: the self-cleavage was 0.831. To G38C C66A belongs 0.189; to G35C A56G, 0.128. To U20C A51G belongs 0; to A71U G73U, 0.237.

As for C48A C64U, the self-cleavage came out at 0.923. For the variant C62A A77C, the self-cleavage is 0.623.

For C61G C75A, the self-cleavage was determined as 0.166. The value for G28C C64G was 0.0791; that for C14G U23A was 0.68; that for A56U A83C was 0.499. With A45C G73U, the self-cleavage stood at 0.193. The value for G59U G67A was 1.05. To C14U G38U belongs 0.271; to C21U C49U, 0.245.

As to C22G G53U, the self-cleavage is 0.0563. To G31A C48U belongs 0.393; to G34A G74C, 0.102. For the variant U20C G67U, the self-cleavage is 0.175. In the case of G55C C57A, the self-cleavage came out at 1.06. As for A16G G53A, the self-cleavage amounted to 1.04.

Consider G54A G59C, for which the self-cleavage was found to be 1.07. To C44G A51G belongs 0.653; to U46C C57A, 1.22; to C30G U46G, 0.0361.

For C36A A83C, the self-cleavage was determined as 0.0791. The value for G40A C75G was 0.305; that for U23A C62U was 0.966; that for A43G C48U was 0.587. Take G2U G38C: the self-cleavage came out at 0.0181.

Take A8C U47G: the self-cleavage was 0.795.

With G55U C58A, the self-cleavage was found to be 0.843. The value for C13G U79C was 0; that for G55U C64G was 0.781; that for U23G A42C was 0. To G35U U46G belongs 0.141; to C36A G73C, 0.178; to C15G C86U, 0.791. Consider U47G G82C, for which the self-cleavage was found to be 0.237. The value for A78U C85A was 0.185.

On to C26G C75A, for which the self-cleavage worked out at 0.266. On to C30A C48A, for which the self-cleavage was 0.635.

In the case of C15A G25U, the self-cleavage amounted to 0.0791. To G2U A87U belongs 0.0747; to C75U A83G, 0.166; to C36A C57U, 0.102. To C3G G50U belongs 0.665; to C26G U46A, 0.731; to A45U C58A, 0.539.

Take C7G C62G: the self-cleavage turned out to be 0.111. In the case of G6U C21A, the self-cleavage stood at 0.227. The value for C24G G35A was 0.124; that for G5C C36U was 0.0978. C36G G82U: the self-cleavage came to 0.142. For C14G G74A, the self-cleavage was determined as 0.199. Turning to A45C G67C, the self-cleavage is 0.731. The value for U12C G40A was 0.305; that for G1C C64U was 0.155. As for A45U C66A, the self-cleavage was found to be 0.812.

With C21A C75G, the self-cleavage came out at 0.0346.

For the variant A42C C48G, the self-cleavage amounted to 0.229. To C58U G67U belongs 1.12; to C21A A42U, 0.208; to G25A G31C, 0.0739.

For the variant C26A G29A, the self-cleavage came to 0.13. The value for C18G G59A was 0.128; that for G25C C30A was 0.0511. To C33G G59C belongs 0.201; to G76A A87U, 1.08; to U46A U47C, 0.532. The value for G74A A83U was 0.272; that for U37A C61A was 0.138. Take C41A U60G: the self-cleavage amounted to 0.522.

As to C24G G53A, the self-cleavage was 0.18.

Turning to G28A C62U, the self-cleavage amounted to 0.134.

With U60A G80A, the self-cleavage amounted to 0.3.

Take A51C A78C: the self-cleavage was 0.277. The value for C32G U47A was 0.244; that for C18G G39C was 0.0755.

As for C7G A8C, the self-cleavage turned out to be 0. With A43U G50U, the self-cleavage is 0.458. The value for A42G G55A was 0.485. For the variant C4A C85U, the self-cleavage stood at 0.381. To C4A C85A belongs 0.346.

Take C3A G39U: the self-cleavage was 0.0777. The value for C21G U65G was 0; that for G35A G76A was 0.709. The value for U12G U27G was 0.639; that for C22G C41G was 0.0831; that for A16U G73C was 0.437. The value for G2A C21G was 0.0528.

As to C36G C61A, the self-cleavage worked out at 0.116. The value for C7U C84G was 0.527; that for U20A G29C was 0.128. U60C U72C: the self-cleavage stood at 0.539. U27C G80A: the self-cleavage is 0.237. Take U65A A70C: the self-cleavage was 0.643. The value for A51C G68C was 0.762; that for U23A G81U was 0.134; that for A70G A83C was 0.344. To C63U C66G belongs 0.88. To G31C A71G belongs 0.253; to G55A C62A, 1.01; to G11C G81C, 0.0519. Regarding A51G C84A, the self-cleavage is 0.698. To U47C C85G belongs 0.831. For the variant U23A A45C, the self-cleavage worked out at 0.344.

Consider C22U G53A, for which the self-cleavage is 0.821. To G31A A83U belongs 0.178; to G10U C75G, 0.0563; to U47A G50C, 0.855. Take A8C C63G: the self-cleavage stood at 0.554. For G39C U65G, the self-cleavage is 0.262.

Consider G38C C63A, for which the self-cleavage came out at 0.332.

Consider G53U G81A, for which the self-cleavage turned out to be 0.445. On to U20G C49G, for which the self-cleavage is 0.361. The value for G5U U9C was 0.332. In the case of C36U G39U, the self-cleavage amounted to 0.245. Turning to C4U G80A, the self-cleavage was 0.242. The value for C18A C58A was 0.285; that for G5U C15U was 0.723. On to G6U G54A, for which the self-cleavage came out at 0.522.

As to A83U C84A, the self-cleavage was 0.813.

As for G5U C64U, the self-cleavage was 0.499.

Consider C14A G55A, for which the self-cleavage was 0.814. To C4A G5C belongs 0.232; to C49G G73U, 0.322; to G53A C66A, 0.794.

For G73A A77G, the self-cleavage worked out at 0.386.

For U69G G76U, the self-cleavage was 1.01. The value for C15G C44G was 0.434. The value for G52C A78G was 0.787; that for A71C G80U was 0.182; that for G35U U69A was 0.212. The value for A16G G39C was 0.0791; that for G17A C66A was 0.748; that for G29C G59A was 0.0332. In the case of C13A G35C, the self-cleavage worked out at 0.0339. To C18G U69G belongs 0.128; to C18G A70C, 0; to C7A U65G, 0.246. To C13U U20A belongs 0.0831; to G50U C64G, 0.703; to C18G A71U, 0.0723.

Take G28C G82C: the self-cleavage was determined as 0.0475. Take G5A C63U: the self-cleavage worked out at 0.155.

With C22U C58U, the self-cleavage is 0.684. Regarding C7A C48U, the self-cleavage worked out at 0.542.

Values taken from the RNAGym collection of RNA variant scans (doi:10.7554/elife.80360).
